Measurements: US20210093695A1, “Method” (APITOPE TECHNOLOGY (BRISTOL) LIMITED, priority 2017, published 2021)

Tests used:
[1] = test system: double-transgenic (DTg; human HLA-DR15/MBP-specific T-cell receptor) humanized mice; experiment: SCH-induced EAE in double-transgenic humanized mice, clinical score; assay type: in vivo, mouse; conditions: once weekly from Day 0; ATX-MS-1467 100 μg/dose, MBP82-98 12 μg or 100 μg/dose
Procedure: In double-transgenic (DTg; human HLA-DR15/MBP-specific T-cell receptor) ‘humanized’ mice, EAE was induced using an emulsification of spinal cord homogenate (SCH) and CFA on Day 0. Mice also received a pertussis toxin injection on Days 0 and 2.
Throughout the study, neurological deficits were measured using a standardized clinical score scale: 0=no clinical signs, 1=limp tail, 2=impaired righting reflex, 3=partial hind limb paralysis, 4=complete hind limb paralysis, 5=moribund/death.
If animals reached a score of 4 they were euthanized to reach a humane endpoint.
[…] were treated prophylactically either with subcutaneous (sc) phosphate-buffered saline (PBS) vehicle or ATX-MS-1467 (n=10 per treatment group) starting 3 weeks before EAE induction. […]
ATX-MS-1467 was tested head-to-head with MBP82-98 and GA. […] For both compounds, the human equivalent dose (HED) was calculated based on body surface area: MBP82-98=12 μg/dose and GA=75 μg (3.75 mg/kg)/dose.
Statistical analyses for significant differences on clinical scores by treatment over time and cumulative clinical scores (area under the curve) were performed using Kruskal-Wallis with Dunn's post hoc analysis of comparisons. Disease onset was analyzed by Kaplan-Meier curve and significance was determined using the log-rank (Mantel-Cox) test. Cellular brain infiltrates were analyzed by Student's t-test. […]

HLA-DQ6 = HLA-DQ6 binding of MBP peptides; set-up: species or system human
HLA-DR2 = HLA-DR2 (Homo sapiens, UniProt P01903+P01911); experiment: HLA-DR2 binding of MBP peptides
Chain of HLA-DR2 (P01903 26-254): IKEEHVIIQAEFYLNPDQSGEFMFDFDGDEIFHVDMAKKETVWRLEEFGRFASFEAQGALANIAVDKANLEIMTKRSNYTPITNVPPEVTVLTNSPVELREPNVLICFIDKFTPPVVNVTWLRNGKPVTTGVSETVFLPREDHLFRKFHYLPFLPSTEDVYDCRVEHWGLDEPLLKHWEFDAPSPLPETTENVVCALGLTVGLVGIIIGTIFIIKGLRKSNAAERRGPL
Chain of HLA-DR2 (P01911 30-266): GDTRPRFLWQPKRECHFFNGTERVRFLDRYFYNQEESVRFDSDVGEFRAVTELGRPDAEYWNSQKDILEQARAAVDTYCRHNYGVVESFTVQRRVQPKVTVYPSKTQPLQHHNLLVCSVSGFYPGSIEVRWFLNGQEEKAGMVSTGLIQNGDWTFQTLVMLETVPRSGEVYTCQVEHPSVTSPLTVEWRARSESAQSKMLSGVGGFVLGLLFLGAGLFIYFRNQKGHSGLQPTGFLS

DR2/Ob1Het/Het mice = experiment: Serum cytokine levels after s.c. treatment/challenge (Milliplex); assay type: in vivo, mouse
Procedure: Double transgenic heterozygous mice, referred to here as DR2/Ob1Het/Het, were used for these studies. These mice express human leukocyte antigen (HLA) isotypes DRA*0101 and DRB1*1501 under the mouse major histocompatibility […] promoter and the MBP84-102-specific TCR (Ob.1A12) expressed under mouse TCRα and β promoter/enhancer elements.
DR2/Ob1Het/Het mice were treated and/challenged by a single or multiple subcutaneous (s.c.) injections of 100 μg of ATX-MS-1467 or 25 μg of a HLA binding protein (HLAbp) unrelated to EAE and/or 30-1000 μg of myelin basic protein (MBP, Sigma, M1891). Treatment paradigms varied between studies and groups (see specifics in each study). Chronic treatment with ATX-MS-1467 or with HLAbp followed a 3× weekly regimen.
Cytokine levels were quantified in serum of DR2/Ob1Het/Het mice at different time points using a Milliplex MAP mouse Cytokine/Chemokine magnetic kit (MCYTOMAG-70-PMX).

MBP82-98: 17-amino acid synthetic peptide identical to MBP (dirucotide)
disease severity vs vehicle [1]: did not show significant effects

H-Ala-Ser-Asp-Tyr-Lys-Ser-Ala-His-Lys-Gly-Phe-Lys-Gly-Val-Asp-NH2 (H-ASDYKSAHKGFKGVD-NH2) [MBP 131-145]
HLA-DQ6 binding (HLA-DQ6): HLA-DQ6 binding

H-Pro-Arg-His-Arg-Asp-Thr-Gly-Ile-Leu-Asp-Ser-Ile-Gly-Arg-Phe-NH2 (H-PRHRDTGILDSIGRF-NH2) [MBP 30-44]
HLA-DQ6 binding (HLA-DQ6): HLA-DQ6 binding

H-Glu-Asn-Pro-Val-Val-His-Phe-Phe-Lys-Asn-Ile-Val-Thr-Pro-Arg-Thr-Pro-NH2 (H-ENPVVHFFKNIVTPRTP-NH2) [MBP 83-99]
HLA-DR2 binding (HLA-DR2): HLA-DR2 binding

H-Gly-Phe-Lys-Gly-Val-Asp-Ala-Gln-Gly-Thr-Leu-Ser-Lys-Ile-Phe-NH2 (H-GFKGVDAQGTLSKIF-NH2) [MBP 140-154]
HLA-DR2 binding (HLA-DR2): HLA-DR2 binding

B1: MBP: myelin basic protein (MBP, Sigma, M1891), full length (protein, UniProt P02686 1-304, looked up)
Myelin basic protein: MGNHAGKRELNAEKASTNSETNRGESEKKRNLGELSRTTSEDNEVFGEADANQNNGTSSQDTAVTDSKRTADPKNAWQDAHPADPGSRPHLIRLFSRDAPGREDNTFKDRPSESDELQTIQEDSAATSESLDVMASQKRPSQRHGSKYLATASTMDHARHGFLPRHRDTGILDSIGRFFGGDRGAPKRGSGKDSHHPARTAHYGSLPQKSHGRTQDENPVVHFFKNIVTPRTPPPSQGKGRGLSLSRFSWGAEGQRPGFGYGGRASDYKSAHKGFKGVDAQGTLSKIFKLGGRDSRSGSPMARR
dose dependence of serum cytokine secretion (DR2/Ob1Het/Het mice; 2 h after s.c. injection, 30-1000 μg): dose-dependent secretion of cytokines
cytokine secretion in the blood after acute treatment (DR2/Ob1Het/Het mice; single s.c. injection, FIG. 4 (MBP), FIG. 5 (ATX-MS-1467 100 μg/mouse)): induces the secretion of both pro and anti-inflammatory cytokines
